The values that follow come from patent US20090214508A1.

The test addresses FLAG-tagged R2FasL (pFLAG-FlkFasL; FlkFasL with an N-terminal FLAG epitope tag) (mouse; human) (UniProt P35918). Kind of test: cell-based or functional assay.

Sequence of FLAG-tagged R2FasL (pFLAG-FlkFasL; FlkFasL with an N-terminal FLAG epitope tag) (mouse; human) (P35918 other isoform, or with tags, fused parts or gaps): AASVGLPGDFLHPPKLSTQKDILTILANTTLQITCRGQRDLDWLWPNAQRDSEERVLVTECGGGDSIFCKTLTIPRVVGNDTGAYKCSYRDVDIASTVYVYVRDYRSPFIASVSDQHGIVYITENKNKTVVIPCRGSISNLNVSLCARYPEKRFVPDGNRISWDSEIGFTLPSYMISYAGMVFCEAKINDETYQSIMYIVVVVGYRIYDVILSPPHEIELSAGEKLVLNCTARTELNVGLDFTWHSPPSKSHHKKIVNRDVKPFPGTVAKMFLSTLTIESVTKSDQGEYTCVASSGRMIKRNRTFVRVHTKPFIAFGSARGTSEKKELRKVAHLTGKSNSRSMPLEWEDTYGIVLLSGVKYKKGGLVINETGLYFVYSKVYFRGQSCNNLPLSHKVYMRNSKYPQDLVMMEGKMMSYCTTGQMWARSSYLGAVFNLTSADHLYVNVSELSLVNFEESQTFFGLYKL

Regarding “recombinant human VEGF-165 (from UniProt P15692 27-191) (ligand)”, the ED50 (viability of Jurkat E6.1 cells, resazurin assay) fell in the range of 0.02 to 0.2 nM.
